Read-outs that look alike come from different tables or passages of the source.
Columns and labels:
[1] = molecular target: T1, CHO expressed human interferon gamma (hIFNγ) (human, UniProt P01579 24-161, glycosylated (highly glycosylated form purified)); test: BIAcore
T1 chain: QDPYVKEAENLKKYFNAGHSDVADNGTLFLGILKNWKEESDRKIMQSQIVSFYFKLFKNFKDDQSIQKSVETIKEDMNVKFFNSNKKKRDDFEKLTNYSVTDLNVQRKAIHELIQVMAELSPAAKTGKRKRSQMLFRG

[2] = molecular target: T1, CHO expressed human interferon gamma …; test: BIAcore

B1: BS-B Fab (soluble, purified) (Fab, V domains shown)
VH: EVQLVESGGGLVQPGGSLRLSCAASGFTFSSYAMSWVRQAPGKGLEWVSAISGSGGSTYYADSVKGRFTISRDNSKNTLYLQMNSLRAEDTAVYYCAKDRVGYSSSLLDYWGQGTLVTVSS
VL: NFMLTQPHSVSESPGKTVTISCTRSSGSIASYYVQWYQQRPGSSPTTVIYEDDQRPSGVPDRFSGSIDSASNSASLTISGLQTEDEADYYCQSYDRNSLVFGGGTKLTVLG
B1 showed a Kd [1] of 83.5 nM.

B2: BS-A Fab (soluble, purified) (Fab, V domains shown)
VH: QVQLQQWGAGLLKPSETLSLTCAVYGGSFSGYYWSWIRQPPGKGLEWIGEINHSGSTNYNPSLKSRVTISVDTSKNQFSLKLSSVTAADTAVYYCARGRARNWRSRFDYWGQGTLVTVSS
VL: NFMLTQPHSVSESPGKTVTISCTGSSGSIASHYVQWYQQRPGSAPTNVIYEDKERPSGVPDRFSGSIDSSTNSASLTISGLKTEDEADYYCQSYDSSNQWVFGGGTKLTVLG
B2 was tested, and the Kd [1] was 84.3 nM.

B3: GP-A IgG (antibody, V domains shown)
VH: QVQLVETGGGVVQPGRSLRLSCAASGFTFSSYAMHWVRQAPGKGLEWVAVISYDGSNKYYADSVKGRFTISRDNSKNTLYLQMNSLRAEDTAVYYCASDLVLTMTSRRAAFDIWGQGTMVTVSS
VL: SYELTQPPSVSVSPGQTARITCSGDVLARKYARWFQQKPGQAPVLVIYKDRERPSGIPERFSGSTSGTTVTLTISGAQVEDEADYYCYSAADNRGVFGGGTKLTVLR
For B3, the Kd [2] was 8 nM and the Kd [1] was 8 nM.

B4: 57E IgG (antibody, V domains shown)
VH: QVQLQESGPGLVKPSETLSLTCAVSGGSISSGGYSWSWIRQPPGKGLEWIGYIYHSGSTYYNPSLKSRVTISVDRSKNQFSLKLSSVTAADTAVYYCARGDWGYFDYWGQGTLVTVSS
VL: NFMLTQPHSVSESPGKTVTISCTGSSGSIANNYVHWYQQRPGSAPTTVIFEDDQRPSGVPDRFSGSVDSSSNSASLSISGLKTEDEADYYCQSYDNSNSFVVFGGGTKLTVLG
B4 was tested, and the Kd [2] was 200 nM.

B5: Fab phage clone "IFN-A" (Fab, V domains shown)
VH: EVQLQQWGAGLLKPSETLSLTCAVYGGSFSGYYWSWIRQPPGKGLEWIGEINHSGSTNYNPSLKSRVTISVDTSKNQFSLKLSSVTAADTAVYYCARGWPTYVWGSYRPKGYFDYWGQGTLVTVSS
VL: EIVLTQSPLSLPVTPGEPASISCRSSQSLLHTNEYNYLDWYLQKPGQSPQLLIYLGSNRAPGVPDRFSGSGSGTDFTLRISRVEADDVGVYYCMQALQTPRTFGQGTKLEIKR
Binder B5 has a Kd [1] of 420 nM.

B6: BS-B IgG (antibody, V domains shown)
VH: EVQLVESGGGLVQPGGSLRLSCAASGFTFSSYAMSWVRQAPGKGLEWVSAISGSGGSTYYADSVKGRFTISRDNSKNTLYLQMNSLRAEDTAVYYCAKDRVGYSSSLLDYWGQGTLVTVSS
VL: NFMLTQPHSVSESPGKTVTISCTRSSGSIASYYVQWYQQRPGSSPTTVIYEDDQRPSGVPDRFSGSIDSASNSASLTISGLQTEDEADYYCQSYDRNSLVFGGGTKLTVLG
Work on B6 yielded a Kd [2] of 0.5 nM and a Kd [1] of 0.5 nM.

B7: BS-A IgG (antibody, V domains shown)
VH: QVQLQQWGAGLLKPSETLSLTCAVYGGSFSGYYWSWIRQPPGKGLEWIGEINHSGSTNYNPSLKSRVTISVDTSKNQFSLKLSSVTAADTAVYYCARGRARNWRSRFDYWGQGTLVTVSS
VL: NFMLTQPHSVSESPGKTVTISCTGSSGSIASHYVQWYQQRPGSAPTNVIYEDKERPSGVPDRFSGSIDSSTNSASLTISGLKTEDEADYYCQSYDSSNQWVFGGGTKLTVLG
For B7, the Kd [2] was 6 nM and the Kd [1] was 6 nM.

B8: IFN-A IgG (antibody, V domains shown)
VH: EVQLQQWGAGLLKPSETLSLTCAVYGGSFSGYYWSWIRQPPGKGLEWIGEINHSGSTNYNPSLKSRVTISVDTSKNQFSLKLSSVTAADTAVYYCARGWPTYVWGSYRPKGYFDYWGQGTLVTVSS
VL: EIVLTQSPLSLPVTPGEPASISCRSSQSLLHTNEYNYLDWYLQKPGQSPQLLIYLGSNRAPGVPDRFSGSGSGTDFTLRISRVEADDVGVYYCMQALQTPRTFGQGTKLEIKR
With B8 the Kd [2] was 18 nM and the Kd [1] was 18 nM.

B9: Fab phage clone "GP-A" (Fab, V domains shown)
VH: QVQLVETGGGVVQPGRSLRLSCAASGFTFSSYAMHWVRQAPGKGLEWVAVISYDGSNKYYADSVKGRFTISRDNSKNTLYLQMNSLRAEDTAVYYCASDLVLTMTSRRAAFDIWGQGTMVTVSS
VL: SYELTQPPSVSVSPGQTARITCSGDVLARKYARWFQQKPGQAPVLVIYKDRERPSGIPERFSGSTSGTTVTLTISGAQVEDEADYYCYSAADNRGVFGGGTKLTVLR
Binder B9 has a Kd [1] of 150 nM.

Reference: patent publication US20030099647A1 (published 2003)
